The results in this text go back to PMC10842012.

Assay [1] addresses HRP29 portal protein gp35 (Shigella phage HRP29). Put plainly: cryo-EM structure.
Assay [2] addresses HRP29 tailspike adapter protein gp44 (in the virion) (Shigella phage HRP29). As to the kind of experiment: cryo-EM structure.
The target of assay [3] is HRP29 tailspike protein gp52 (Shigella phage HRP29). Put plainly: negative-stain electron microscopy with 2D classes and 3D reconstruction.
The target of assay [4] is HRP29 decoration protein gp48 (Shigella phage HRP29). Put plainly: cryo-EM structure.

In assay [1], “HRP29 portal protein gp35 (natural protein)” came in with a stoichiometry N of 12. In assay [2], “HRP29 tailspike adapter protein gp44 (in the virion) (natural protein)” returned a stoichiometry N of 3. Substance “HRP29 tailspike protein gp52 (natural protein)” came in with a stoichiometry N in assay [3] of 3. “HRP29 decoration protein gp48 (natural protein)” yielded a stoichiometry N in assay [4] of 2.

Usually stoichiometry N stands for the number of molecules, sites or subunits per partner or assembly.
